Kd data for 11 molecules are collected here from patent publication US20250084164A1 (NEXTCURE, published 2025).

Assay [1] deals with T1, monomeric LAIR-1-His (R&D Systems) (UniProt Q6GTX8 22-163).
T1 chain: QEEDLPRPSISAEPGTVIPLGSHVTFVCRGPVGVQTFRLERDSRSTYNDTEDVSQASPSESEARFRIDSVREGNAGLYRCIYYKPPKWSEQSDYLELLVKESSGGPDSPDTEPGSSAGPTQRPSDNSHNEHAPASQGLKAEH
In words: BLI (Octet RED96). (In general: In BLI a coated tip is dipped into the sample, and binding shifts an interference pattern.)

The target of assay [2] is T2, monomeric LAIR-1-His (R&D Systems) (UniProt Q6GTX8 22-163, limits assumed).
T2 construct: Bought protein
T2 sequence (looked up): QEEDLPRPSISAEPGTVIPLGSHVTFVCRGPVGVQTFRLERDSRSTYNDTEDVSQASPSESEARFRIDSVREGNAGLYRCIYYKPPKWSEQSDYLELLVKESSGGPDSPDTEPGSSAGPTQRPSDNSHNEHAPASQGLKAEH
The assay can be described thus: BLI (Octet RED96), chimeric mAb on anti-human IgG sensor, monomeric LAIR-1-His in solution. The protocol:
Anti-human IgG capture sensors were used to bind to chimeric LAIR-1 mAbs at a density to ensure 1:1 binding to monomeric LAIR-1-His (R&D Systems) in solution at various concentrations. Assay buffer was PBS with 0.05% Tween-20 and regeneration buffer was 10 mM glycine pH 1.5. First, chimeric LAIR-1 mAbs were loaded to sensor. This was followed by association step with LAIR-1-His, and a dissociation step in a separate LAIR-1-His free well. Data was processed using ForteBio data analysis software 9.0. A global fit was used following subtraction of reference wells. The reported average KD values are from at least three independent Octet runs with high confidence of accuracy based on X2 and R2 values. Note the two chimeric versions of 12E10 were tested. Both had relatively low affinity, while the 12E10V2 mAb was removed from usage due to very low affinity.

B1: chimeric LAIR-1 mAb 6B2 (antibody, V domains shown)
VH: EVQLVESGGGLVQPKGSLKLSCAASGFSFNINAMNWVRQAPGKGLEWVARIRSKSNNYETYYADSVKDRFTISRDDSESMVYLQMNNLKTEDTAMYYCVRSLWFVYWGQGTLVTVSA
VL: DIQMTQSPASQSASLGESVTITCLASQTIGTWLAWYQQKPGKSPQLLIYAATSLADGVPSRFSGSGSGTKFSFKISSLQAEDFVSYYCQQLYSTPLTFGAGTKLELK
Turning to B1, the Kd in assay [1] came out at 6.53 nM.

B2: 9H6 (antibody, V domains shown)
VH: EVQLVESGGGLVQPKGSLKLSCAASGFSFNTHAMNWVRQAPGKGLEWVARIRTKSNNYATYYADSVKDRFIISRDDSENMVYLQMNNLKTEDTAIYYCVRLRGGFLDYWGQGTTLTVSS
VL: DIQMTQSPASQSASLGESVTITCLASQTIGTWLAWYQQKPGRSPQLLIYAATSLADGVPSRFSGSGSGTKFSFKINSLQAEDFVSYYCQQLYSTPFTFGSGTKLEIK
Molecule B2 showed a Kd in assay [1] of 11.6 nM.

B3: chimeric 11B3 (antibody, V domains shown)
VH: EVQLVESGGGLVQPKGSLKLSCAASDFTFNTYAMHWVRQAPGKGLEWVARIRTKSNNYATYYADSVKDRFTISRDDSQSMLYLQMNNLTTEDTAMYYCVRDRYGGAMDYWGQGTSVTVSS
VL: DIQMAQSSSSFSVSLGDRVTITCKASEDIYIRLAWYQQKPGNAPRLLISTATSLETGVPSRFSGSGSGKDYTLSITSLQTEDVATYYCQQYWSTPYTFGGGTRLEIK
notes: Chimeric mAb
Consider B3, for which the Kd in assay [1] is 1.98 nM; in assay [2], under 5 nM.

B4: chimeric LAIR-1 mAb 6F4 (antibody, V domains shown)
VH: QVQLQQSGAELAKPGASVKLSCKASGYTFTSYWMHWVKQRPGQGLEWIGYINPFSGHTKYNQKFKDKATLTADKSSSTAYMQLSSLTYEDSAVYYCARNFDQWGQGTTLTVSS
VL: DIKMTQSPSSMYASLGERVTITCKASQDINSYLSWVQQKPGKSPKTLIDRANRLVDGVPSRFSGSGSGQDYSLTISSLEYEDMGIYYCLQYDEFPPYTFGGGTKLEIK
In the case of B4, in assay [1], the affinity, expressed as Kd, was 12.8 nM.

B5: chimeric 6G6 (antibody, V domains shown)
VH: EVQLQQSGPELVKPGASVKISCKASGYTFTTYYMNWVKQSHGKSLEWIGNINPDNGITSYNQKFKGKATLTVDKSSSTAYMELRSLTSEDSAVYYCARGKSLAYWGQGTLVTVSA
VL: DIVMTQSHKFMSTSVGDRVSITCKASQNVGTAVAWYQQKPGQSPKLLIYWASIRHTGVPDRFTGSGSGTDFTLTISNVQSEDLADYFCQQYSSHPYTFGGGTKLEIK
notes: Chimeric mAb
With B5, the Kd in assay [1] is 4.7 nM; in assay [2], under 5 nM.

B6: chimeric 1E11 (antibody, V domains shown)
VH: QVQLQQSGPELVKPGASVKLSCKASGYTFTSYDINWVKQRPGQGLEWIGWIYPRDGSTKYNEKLKGKATLTVDTSSRTAYMELHSLTSEDSAVYFCARGGYYDYDGYWGQGTLVTVSA
VL: DIVMTQAAFSNPVTLGTSASISCRSSKSLLHSNGITYLYWYLQKPGQSPQVLIYQMSSLASGVPDRFSSSGSGTEFTLRISRVEAEDVGVYYCAQNLELPLTFGAGTKLELK
notes: Chimeric mAb (mouse variable, human constant)
For B6, the Kd is 1.37 nM in assay [1] and under 5 nM in assay [2].

B7: chimeric LAIR-1 mAb 7G3 (antibody, V domains shown)
VH: QVQLQQSGPELVKPGASVKLSCKASGYTFTTYDINWVKQRPGQGLEWIGWIYPRDGTTKYNEKFKGKATLTVDTSSTTAYMELHSLTSEDSAVYFCARGGYYDYDGYWGQGTLVTVSA
VL: DIVMTQAAFSNPVTLGTSASISCRSSKSLLHSNGITYLYWYLQKPGQSPQVLIYQMSNLASGVPDRFSSSGSGTEFTLRISRVEAEDVGVYYCAQNLEFPLTFGAGTKLELK
notes: Chimeric mAb
Take B7: the Kd was 1.63 nM in assay [1] and under 5 nM in assay [2].

B8: 12E10V1 (antibody, V domains shown)
VH: QVQLQQSGAELARPGTSVKLSCKASGYTFTSCGLSWVKQRTGQGLEWIGEIYPSNGNSYYSDKVKDKATLTADKSSSTAYMELRSLTSEDSAVYFCARAYYTNGYYAMDYWGQGTSVTVSS
VL: DIVMTQSQKFMSTSVGDRVSITCKASQNVRSAVAWYQQKPGQSPKTLIYLASNRHTGVPDRFTGSGSGTDFTLTISNVQSEDLADYFCLQHWNYPLTFGAGTKLELK
In assay [1], B8 yielded a Kd of 20.2 nM.

B9: chimeric LAIR-1 mAb 5A6 (antibody, V domains shown)
VH: QVQLQQSGAELARPGASVKLSCKASGYTFTSYGISWVKQRTGQGLEWIGEIYPRRGNTYYNEKFKGKATLTADKSSSTAYMELRSLTSEDSAVYFCARQLFAYWGQGTLVTVSA
VL: DIQMTQSPSSLSASLGERVSFSCRASQDIGSSLNWLQQEPDGTIKRLIYATSSLDSGVPKRFSGSRSGSDYSLTISSLESEDFVEYYCLQYDSFPYTFGGGTKLEIK
In the case of B9, in assay [1], binding was characterised by a dissociation constant (Kd) of 23.3 nM.

B10: chimeric 5E1 (antibody, V domains shown)
VH: EVQLQQSGPELVKPGASVKISCKASGYSFTGYFMNWVKQSPEKSLEWIGEIHPSTGSIIYNQKFKAKATLTIDKSSSTAYMQLKSLTSEDSAVYYCARFDYSNSFAYWGQGTLVTVSA
VL: DIQMTQTTSSLSASLGDRVTISCRASQDISNYLNWYQQKPDGTVKLLIYYTSRLHSGVPSRFSGSGSGTDYSLTISNLEQEDIATYFCQQGNTLPRTFGGGTKLEIK
notes: Chimeric mAb
On to B10, for which the Kd in assay [1] is 3.92 nM; in assay [2], under 5 nM.

B11: chimeric LAIR-1 mAb 4B3 (antibody, V domains shown)
VH: QIQLQQSGAELARPGASVKLPCKASDYIFISYGLNWVRQTTGQGLEWIGEIYPRSGHTYYNEKFKGKATLTADKSSSTAYMELRSLTSEDSAVYFCARRSVFYDYDKNGFDYWGQGTTLTVSS
VL: DIVMKQSPSSLRVSAGEKVTMSCKSSQSLLNSGNQKNYLAWYQQKPGQPPKLLIYGASTRESGVPDRFTGSGSGTDFALTISSVQAEDLAVYYCQNDHSYPFTFGSGTKLEIK
With B11, the Kd in assay [1] worked out at 32.3 nM.

As usually defined, the Kd is a measure of binding affinity in units of concentration. The low end stands for a tighter complex, the high end for a looser complex.
